B1: TPR t1 (parent)
chain: GACCAAUCUGCCCUCAGAGCUCGAGAACAUCUUCGGAUGCAGAGGAGGCAGGCUUCGGUGGCGCGAUAGCGCCAACGUCCUCAACCUCCAAUGCAUCCCACCACAUGAUGAUGCCUGAAGAGCCUUGGUUUUUUG

Variants of: B1
Test: polymerase ribozyme fitness, log enrichment relative to wild type (log ratio); higher = more active; in vitro selection for triplet polymerase activity
In short: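 Mutant libraries of each subunit of a heterodimeric triplet polymerase ribozyme were built by PCR and transcribed. Each library went through one round of in vitro selection in triplicate: annealing with biotinylated primer, partner subunit and triplets, frozen incubation at −7 °C, gel excision of extended constructs, streptavidin-bead capture and RT-PCR. Input and output libraries were Illumina-sequenced; only genotypes with ≥10 input reads and ≥1 read per output were kept. Fitness is log2(genotype enrichment/wild-type enrichment), using inverse-variance-weighted replicate averages.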

First: C70U C82G
Second: G71U C82G G117A
The “polymerase ribozyme fitness (log ratio)” value of the first is higher: -0.344 for the first, -2.4 for the second.

C72G C82U C102A G120A and C72G G117A are within 0.2 log units of each other in “polymerase ribozyme fitness (log ratio)” value: -1.89 for the first, -1.8 for the second.

Compared with C72G G117U, G71U G122U is higher in “polymerase ribozyme fitness (log ratio)” value: -2.41 for the first, -0.542 for the second.

First: C70A U112A G113A
Second: G69U C99A
The “polymerase ribozyme fitness (log ratio)” value of the first is higher: -2.47 for the first, -3.23 for the second.

First: G69U C99G
Second: C72G A95C
The “polymerase ribozyme fitness (log ratio)” value of the first is lower: -6.24 for the first, -2.36 for the second.

Compared with C72G C88U U129A, G69C G122A is lower in “polymerase ribozyme fitness (log ratio)” value: -0.881 for the first, -1.53 for the second.

Going from G69U C79G to C70U U78G A108G A111C, the “polymerase ribozyme fitness (log ratio)” value falls from -1.63 to -2.26.

First: C70G G93A
Second: C70G G93C
The “polymerase ribozyme fitness (log ratio)” value of the first is higher: -4.33 for the first, -4.94 for the second.

Going from C70A C86G C102A to G69U C94U C101A, the “polymerase ribozyme fitness (log ratio)” value rises from -4.88 to -0.271.

Going from C70U A95G to G69C A83U C99A C102A, the “polymerase ribozyme fitness (log ratio)” value falls from -0.166 to -6.91.

Going from C70G U126C to C70A G110A U133A, the “polymerase ribozyme fitness (log ratio)” value falls from -3.27 to -3.64.

Going from G69U A91C C114A C124U U126C to G69U A83U, the “polymerase ribozyme fitness (log ratio)” value rises from -2.19 to -0.34.

Compared with G71U U112C, G69C C76U is lower in “polymerase ribozyme fitness (log ratio)” value: 1.34 for the first, -4.07 for the second.

Going from G71U U81A C123A to G69U G71U, the “polymerase ribozyme fitness (log ratio)” value rises from -1.04 to -0.811.

Compared with G71U C79G, G71U A91G A121U is higher in “polymerase ribozyme fitness (log ratio)” value: -2.2 for the first, 0.367 for the second.

Going from C70A A90G to C70G C79A A111C A119C, the “polymerase ribozyme fitness (log ratio)” value falls from -1.9 to -8.17.

Going from C72G A91C to C72G A91G, the “polymerase ribozyme fitness (log ratio)” value rises from -1.51 to -1.13.

Compared with C72G C114A U130C U133G, G71A U87G A103C U106C C124G is lower in “polymerase ribozyme fitness (log ratio)” value: -1.37 for the first, -3.7 for the second.

Going from G71U C86A to G69U U132A, the “polymerase ribozyme fitness (log ratio)” value rises from -2.02 to 0.176.

Compared with G71A G77U C88U G110A C115A U130A, C70U G117A is higher in “polymerase ribozyme fitness (log ratio)” value: -4.99 for the first, -1.99 for the second.

First: G71C C124A
Second: C72G U81C C101U
The “polymerase ribozyme fitness (log ratio)” value of the first is higher: -0.102 for the first, -0.875 for the second.

First: G71U C124A
Second: G69U U78A A91U A111C
The “polymerase ribozyme fitness (log ratio)” value of the first is higher: 2.05 for the first, -0.0328 for the second.

Compared with G71A G93A G117A G120C, G71U C72U A118G is higher in “polymerase ribozyme fitness (log ratio)” value: -2.99 for the first, -0.476 for the second.

Going from C70U A90G C101A C123A to G71A C86A C114A, the “polymerase ribozyme fitness (log ratio)” value falls from -1.13 to -3.9.

Going from C70U G128C to C72A A83U, the “polymerase ribozyme fitness (log ratio)” value rises from -2.54 to -0.322.

Compared with C70A C80A U126C, G69C A90C A91G A108C U112A is lower in “polymerase ribozyme fitness (log ratio)” value: -5.37 for the first, -6.22 for the second.

First: G71U C115G
Second: G71C U81G
The “polymerase ribozyme fitness (log ratio)” value of the first is higher: -1.74 for the first, -5.8 for the second.

Going from G71C U78A to C72A G107A, the “polymerase ribozyme fitness (log ratio)” value falls from -0.14 to -4.95.

Going from C70A A91G to C72G G107A, the “polymerase ribozyme fitness (log ratio)” value falls from -2.74 to -4.9.

Going from C72A C80U C114G to G69C U106A, the “polymerase ribozyme fitness (log ratio)” value rises from -3.31 to -1.14.

Compared with C72A C85G G93A U106C, C70G C72G G110U is lower in “polymerase ribozyme fitness (log ratio)” value: -1.13 for the first, -6.42 for the second.

First: G69U C85A
Second: G69U G120A
The “polymerase ribozyme fitness (log ratio)” value of the first is lower: -1.08 for the first, 1.25 for the second.

Going from G69U G120C to C70G U96C, the “polymerase ribozyme fitness (log ratio)” value falls from 1.2 to -2.6.

Going from G71C G113U to G69C C115U G128A, the “polymerase ribozyme fitness (log ratio)” value falls from -2.72 to -4.75.

First: G71A G120A
Second: C70U C82A G113A
The “polymerase ribozyme fitness (log ratio)” value of the first is higher: -0.000691 for the first, -1.84 for the second.

First: G71U A74G
Second: G71A C89U A111U U112A C123A G127C
The “polymerase ribozyme fitness (log ratio)” value of the first is lower: -5.51 for the first, -2.37 for the second.

Compared with C70G U130A, C72A G113U G120A U132A is higher in “polymerase ribozyme fitness (log ratio)” value: -3.16 for the first, -2.87 for the second.

Going from C72A A118U to C72A C124A, the “polymerase ribozyme fitness (log ratio)” value rises from 0.818 to 1.27.

Compared with C72A C124G, G71A U132A is lower in “polymerase ribozyme fitness (log ratio)” value: 2.23 for the first, -0.617 for the second.

Going from C70G A83C to C70G A83G, the “polymerase ribozyme fitness (log ratio)” value falls from -2.96 to -4.15.

Going from G71U C101U U130G to G69C C115U, the “polymerase ribozyme fitness (log ratio)” value falls from -0.458 to -1.75.

Going from G69C C115A to C70U C97A G113C A119U G127C, the “polymerase ribozyme fitness (log ratio)” value falls from -0.724 to -5.36.

Going from C72A C98A U131A to G69C G120A, the “polymerase ribozyme fitness (log ratio)” value rises from -5.63 to -0.926.

Compared with C72G G77U C85U U106A U109A, G71A U109C is higher in “polymerase ribozyme fitness (log ratio)” value: -7.01 for the first, -4.59 for the second.

First: C72A U125G U131A
Second: C72A U130A
The “polymerase ribozyme fitness (log ratio)” value of the first is lower: -0.709 for the first, -0.443 for the second.

First: C72G C82A C85A A95U
Second: C70A U78C G113A
The “polymerase ribozyme fitness (log ratio)” value of the first is lower: -4.18 for the first, -2.47 for the second.

Going from G69U C104G to G69U C104A, the “polymerase ribozyme fitness (log ratio)” value rises from -4.34 to -0.638.

Compared with C72A C73A, C70G C124U G128C is lower in “polymerase ribozyme fitness (log ratio)” value: -0.947 for the first, -3.97 for the second.

Compared with C70A U130G, C72G U78C U109A is lower in “polymerase ribozyme fitness (log ratio)” value: -2.49 for the first, -6.55 for the second.

Compared with C70U G120U, G69A U116C is lower in “polymerase ribozyme fitness (log ratio)” value: 0.0972 for the first, -3.45 for the second.

Compared with C70U C115G, C70U C115A is higher in “polymerase ribozyme fitness (log ratio)” value: -2.23 for the first, 0.108 for the second.

Compared with C70A C115U, C72A A91C G117C is lower in “polymerase ribozyme fitness (log ratio)” value: -2.84 for the first, -4.28 for the second.

Going from C70A G93C to G69U U87C C104A, the “polymerase ribozyme fitness (log ratio)” value rises from -3.33 to -0.553.

G71C A83U G113U and C70U C82U A83C C89A G93A are within 0.2 log units of each other in “polymerase ribozyme fitness (log ratio)” value: -4.07 for the first, -4.1 for the second.

Compared with C70U G71A U129G, G69U U87A is higher in “polymerase ribozyme fitness (log ratio)” value: -1.98 for the first, 0.245 for the second.

Going from C70G U130G U131G to C72G G93A, the “polymerase ribozyme fitness (log ratio)” value rises from -4.28 to -0.585.

Compared with C72A U87A, C70U G120C U132C is higher in “polymerase ribozyme fitness (log ratio)” value: 0.169 for the first, 0.806 for the second.

First: G69U U78C A84G G122A G128A
Second: G71C G135U
The “polymerase ribozyme fitness (log ratio)” value of the first is lower: -3.23 for the first, -2.55 for the second.

Compared with C70A G117U, G71A A111G is higher in “polymerase ribozyme fitness (log ratio)” value: -4.09 for the first, -0.423 for the second.

Compared with G71U U131A U133G, G69U C86G U96G C114A is lower in “polymerase ribozyme fitness (log ratio)” value: -1.3 for the first, -2.17 for the second.

First: C70U A105C
Second: G69C U96G U106C
The “polymerase ribozyme fitness (log ratio)” value of the first is lower: -3.43 for the first, -3.19 for the second.

Going from C70U G135U to G69U, the “polymerase ribozyme fitness (log ratio)” value rises from -1.13 to 0.48.

G69C and G71A U106A U133A are within 0.2 log units of each other in “polymerase ribozyme fitness (log ratio)” value: -1.27 for the first, -1.42 for the second.

First: G69C A95G
Second: C70U A105G G113A
The “polymerase ribozyme fitness (log ratio)” value of the first is higher: -1.13 for the first, -4.28 for the second.

First: G71U U81G A111U
Second: C70A C101A
The “polymerase ribozyme fitness (log ratio)” value of the first is lower: -6.76 for the first, -2.43 for the second.

First: G69U G71A A75U A103U C124G
Second: G71A C98U C101A
The “polymerase ribozyme fitness (log ratio)” value of the first is lower: -3.98 for the first, -3.15 for the second.

First: C72A C88G C124A
Second: G69U G93C A95U A103U C114U
The “polymerase ribozyme fitness (log ratio)” value of the first is higher: 1.33 for the first, -3.98 for the second.

Compared with G71C G93U C104U A119G, G71U C73A A83U is lower in “polymerase ribozyme fitness (log ratio)” value: -1.16 for the first, -2.73 for the second.

Going from G69U C88A G127C U131A to G71A C82U G110U, the “polymerase ribozyme fitness (log ratio)” value falls from -2.72 to -2.94.

Going from C70U C80A U87A to G71U A95C C101U G127A, the “polymerase ribozyme fitness (log ratio)” value rises from -5 to -3.11.

First: C70G C115G
Second: G71U C89A
The “polymerase ribozyme fitness (log ratio)” value of the first is lower: -3.68 for the first, -2.47 for the second.

Compared with C72G, C72A is higher in “polymerase ribozyme fitness (log ratio)” value: -0.25 for the first, 0.126 for the second.

Going from C72A C86A to G69C U92A, the “polymerase ribozyme fitness (log ratio)” value falls from -0.267 to -5.61.

Compared with C72G G127C, C72G G127A is lower in “polymerase ribozyme fitness (log ratio)” value: -0.368 for the first, -1.26 for the second.

Going from C70A C98U to G69U A91U C99U U109G, the “polymerase ribozyme fitness (log ratio)” value falls from -2.73 to -3.63.

Going from C70G C86U G110U G113C to G69U C94U, the “polymerase ribozyme fitness (log ratio)” value rises from -6.29 to 1.7.

Compared with G69C U96A, C70G A90C C114U A121G is lower in “polymerase ribozyme fitness (log ratio)” value: -2.44 for the first, -4.76 for the second.

Compared with G69U C98A, G69A U129G is lower in “polymerase ribozyme fitness (log ratio)” value: -2.07 for the first, -3.2 for the second.

Going from C70U C102U to G69U C102U A121U, the “polymerase ribozyme fitness (log ratio)” value falls from -2.39 to -3.9.

Compared with C72A U87G A111G, C72G G117C A119U is lower in “polymerase ribozyme fitness (log ratio)” value: 0.26 for the first, -0.356 for the second.

Compared with C70A C88G U125G, C72G C89U is higher in “polymerase ribozyme fitness (log ratio)” value: -3.18 for the first, -0.34 for the second.

First: C72G G113C C114U C115G C124U
Second: G71C C97U
The “polymerase ribozyme fitness (log ratio)” value of the first is lower: -4.29 for the first, -1.45 for the second.

Going from G71U A75U C98U to C72A A83U C123G U126A, the “polymerase ribozyme fitness (log ratio)” value rises from -2.02 to 0.126.

In the case of C70G U129C, the “polymerase ribozyme fitness (log ratio)” value is reported as -3.02.

— the RNAGym collection of RNA variant scans (doi:10.1073/pnas.2313332121)
